Laboratory results taken from article PMC10645729.

B1: hRRM2B N221S (enzyme)
chain: MGDPERPEAAGLDQDERSSSDTNESEIKSNEEPLLRKSSRRFVIFPIQYPDIWKMYKQAQASFWTAEEVDLSKDLPHWNKLKADEKYFISHILAFFAASDGIVNENLVERFSQEVQVPEARCFYGFQILIENVHSEMYSLLIDTYIRDPKKREFLFNAIETMPYVKKKADWALRWIADRKSTFGERVVAFAAVEGVFFSGSFAAIFWLKKRGLMPGLTFSSELISRDEGLHCDFACLMFQYLVNKPSEERVREIIVDAVKIEQEFLTEALPVGLIGMNCILMKQYIEFVADRLLVELGFSKVFQAENPFDFMENISLEGKTNFFEKRVSEYQRFAVMAETTDNVFTLDADF
B2: hRRM2B F198G (enzyme)
chain: MGDPERPEAAGLDQDERSSSDTNESEIKSNEEPLLRKSSRRFVIFPIQYPDIWKMYKQAQASFWTAEEVDLSKDLPHWNKLKADEKYFISHILAFFAASDGIVNENLVERFSQEVQVPEARCFYGFQILIENVHSEMYSLLIDTYIRDPKKREFLFNAIETMPYVKKKADWALRWIADRKSTFGERVVAFAAVEGVFGSGSFAAIFWLKKRGLMPGLTFSNELISRDEGLHCDFACLMFQYLVNKPSEERVREIIVDAVKIEQEFLTEALPVGLIGMNCILMKQYIEFVADRLLVELGFSKVFQAENPFDFMENISLEGKTNFFEKRVSEYQRFAVMAETTDNVFTLDADF
B3: hRRM2B F202G (enzyme)
chain: MGDPERPEAAGLDQDERSSSDTNESEIKSNEEPLLRKSSRRFVIFPIQYPDIWKMYKQAQASFWTAEEVDLSKDLPHWNKLKADEKYFISHILAFFAASDGIVNENLVERFSQEVQVPEARCFYGFQILIENVHSEMYSLLIDTYIRDPKKREFLFNAIETMPYVKKKADWALRWIADRKSTFGERVVAFAAVEGVFFSGSGAAIFWLKKRGLMPGLTFSNELISRDEGLHCDFACLMFQYLVNKPSEERVREIIVDAVKIEQEFLTEALPVGLIGMNCILMKQYIEFVADRLLVELGFSKVFQAENPFDFMENISLEGKTNFFEKRVSEYQRFAVMAETTDNVFTLDADF
B4: hRRM2B F206G (enzyme)
chain: MGDPERPEAAGLDQDERSSSDTNESEIKSNEEPLLRKSSRRFVIFPIQYPDIWKMYKQAQASFWTAEEVDLSKDLPHWNKLKADEKYFISHILAFFAASDGIVNENLVERFSQEVQVPEARCFYGFQILIENVHSEMYSLLIDTYIRDPKKREFLFNAIETMPYVKKKADWALRWIADRKSTFGERVVAFAAVEGVFFSGSFAAIGWLKKRGLMPGLTFSNELISRDEGLHCDFACLMFQYLVNKPSEERVREIIVDAVKIEQEFLTEALPVGLIGMNCILMKQYIEFVADRLLVELGFSKVFQAENPFDFMENISLEGKTNFFEKRVSEYQRFAVMAETTDNVFTLDADF

Target: T1, human ribonucleotide reductase large subunit RRM1 (human) (UniProt P23921)
T1 sequence: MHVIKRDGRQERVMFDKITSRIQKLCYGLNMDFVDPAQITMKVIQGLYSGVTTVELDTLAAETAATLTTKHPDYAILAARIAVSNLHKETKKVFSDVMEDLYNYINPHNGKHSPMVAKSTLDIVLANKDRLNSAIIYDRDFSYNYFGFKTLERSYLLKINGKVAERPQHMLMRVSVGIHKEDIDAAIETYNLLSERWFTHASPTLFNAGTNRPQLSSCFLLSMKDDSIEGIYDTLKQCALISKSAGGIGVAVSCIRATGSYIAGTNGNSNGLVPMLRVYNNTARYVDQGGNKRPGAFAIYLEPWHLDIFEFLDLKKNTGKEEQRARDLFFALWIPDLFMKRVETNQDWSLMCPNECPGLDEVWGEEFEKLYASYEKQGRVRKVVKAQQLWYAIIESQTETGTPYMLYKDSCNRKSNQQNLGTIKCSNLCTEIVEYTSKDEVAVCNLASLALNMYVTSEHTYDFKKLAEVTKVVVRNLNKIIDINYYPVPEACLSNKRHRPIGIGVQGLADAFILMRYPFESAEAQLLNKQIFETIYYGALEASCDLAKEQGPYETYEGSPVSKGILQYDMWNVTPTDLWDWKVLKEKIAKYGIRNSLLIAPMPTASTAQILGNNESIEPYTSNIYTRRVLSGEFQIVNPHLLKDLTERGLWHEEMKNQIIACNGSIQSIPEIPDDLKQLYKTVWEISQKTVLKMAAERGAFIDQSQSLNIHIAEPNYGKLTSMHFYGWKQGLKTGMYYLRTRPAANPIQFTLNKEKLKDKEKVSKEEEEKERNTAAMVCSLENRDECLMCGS

| Binder | RNR activity of the reconstituted complex (CDP to dCDP, HPLC), percent of wild-type hRRM2B; hRRM1 2 μM, hRRM2B 6 μM (% of wild type) |
| --- | --- |
| B1 | 33 |
| B2 | 19.1 |
| B3 | 21.5 |
| B4 | 11.7 |
